16 sequences from the DeepSol protein solubility set can be followed below.

This series is described as follows: soluble on expression in E. coli; label from the status in PepcDB or PDB records.
Regarding “MLKFRASFLSLALMLAVPFAPQAVAKTAATTAASQPEIASGSAMIVDLNTNKVIYSNHPDLVRPIASITKLMTAMVVLDARLPLDEILKVDISQTPEMKGVYSRVRLNSEISRKNMLLLALMSSENRAAASLAHYYPGGYNAFIKAMNAKAKALGMTHTRFVEPTGLSIHNVSTARDLTKLLIATKQYPLIGQLSTTREDMATFSHPAYTLPFRNTNHLVYRDNWNIQLTKTGFTNAAGHCLVMRTVINNKPVALVVMDAFGKYTHFADASRLRTWIETGKVMPVPAAALSYKKQKAAQMAAASASAGAQTAQND”, the “soluble on expression in E. coli” value is given as “not soluble”. As for “MATLEDGTSEDRVANDEYKIWKKNTPFLYDLVMTHALEWPSLSVQWLPDVAKDNSDHTIHRLILGTHTSDEQNHLLISKICMPTDDAQFDASRYDTERSEYGGFGAVNGKVEPDIRINHEGEVNRARYMPQKSNIIATKSPHADVYIFDYLKHSAVPRDNTFNPLIRLKGHTKEGYGLSWNPNKEGLILSASDDQTVCHWDINANQNVAGELQAKDVFKGHESVVEDVAWHVLHDGVFGSVGDDKKLLIWDVRTSTPGHCIDAHSAEVNCLAFNPYSEFILATGSADKTVALWDLRNLRMKLHSFESHRDEIFQVQWSPHNETILASSGTDKRLHVWDLSKIGEDQSAEDAEDGPPELLFIHGGHTAKISDFSWNPNEPWVVCSVSEDNILQVWQMADNIYNEVDEETPADVVERQQ”, the entry is “not soluble”. As for “PAKLGYWKLRGLAQPVRLFLEYLGEEYEEHLYGRDDREKWMSEKFNMGLDLPNLPYYIDDKCKLTQSVAIMRYIADKHGMLGTTPEERARISMIEGAAMDLRIGFGRVCYNPKFEEVKEEYVKELPKTLKMWSDFLGDRHYLTGSSVSHVDFMLYETLDSIRYLAPHCLDEFPKLKEFKSRIEALPKIKAYMESKRFIKWPLNGWAASFGAGDAPPS”, the entry is “soluble”. Next, “LEQYVVVSNYKKQENSELSLQAGEVVDVIEKNESGWWFVSTSEEQGWVPATYLEAQN”: “soluble”.

Turning to “MLYNMDERFEIKDIVAREVIDSRGNPTVEVEVITKGNGYGSAIVPSGASTGTHEALELRDKEKRFGGKGVLMAVENVNSIIRPEILGYDARMQREIDTIMIELDGTPNKSRLGANAILAVSLAVAKAAAATAKIPLYKYLGGFNSYVMPVPMMNVINGGKHAGNDLDLQEFMIMPVGATSISEAVRMGSEVYHVLKNVILEKYGKNAVNVGDEGGFAPPLKTSREALDLLTESVKKAGYEDEVVFALDAAASEFYKDGYYYVEGKKLTREELLDYYKALVDEYPIVSIEDPFHEEDFEGFAMITKELDIQIVGDDLFVTNVERLRKGIEMKAANALLLKVNQIGTLSEAVDAAQLAFRNGYGVVVSHRSGETEDTTIADLSVALNSGQIKTGAPARGERTAKYNQLIRIEQELGLSKYAGRNFRCPF”, the “soluble on expression in E. coli” value was “soluble”. “MEKRKHFTPEQKAKIVIEVIKGERTLNEIAAEYGIHPNLLSRWKTEFISNAGRVFSKETDEVEKVKQSYEKEKDELLKQIGQLSYEVAWLKKKSGLL”: the “soluble on expression in E. coli” value is “not soluble”. Next, “MDCYVGATTGALKGAILKENTFQNLNEIKSLDPKSDEITSMIWNDEQQTEILIARVNRDLQLLGIEENELVSILTVTGGTGPIKGLHKADEKIVTCVESGELQIWNDKSEILSEWKTGPGVAVMRGSTEKPEIVTGGMKNLLKTWNLETGQQTWSAKNVPPDMLGLEIPIMITDARFIPGQNTILEATKLHEMRLYDPRAQRRPVKKIPFMENPIMCTSLTYKTNQILAANSIGEMGLFDLRSKVHPMCKFKGQAGSIRSITAHPTLPLAASVGIDRFLRVHDLQSRKLIHKIYCKTRLNRVLLRDNLSILNDKKPASKKEINEDETEYGNMTKDGYRSENEDDEDDDDVIEEDDVWGVMEPVKRAKKSSDDDVEEIQITSETIAVPSKNSQKLKRKNVLEADEIKEEEGDSDEAEVKKTTKKVLKKKKRV”: “not soluble”; “MGHHHHHHSHMAFCAILLVPSLCRMPSLPTSPWAFPVHWAGFMFKPLDWQGNDFFPPQDEVLAPLSWHKNTFKA”: “not soluble”. Next, “MSLEDQALFGYARYGKVDDVVYPSVIASGNGINYGDSDIEILGDRIPRQILYPAKIKQEILETDKLVIIPNGAELVRKPKDLVRIIMDIHSRYGFSKLIMISGISDPYSIPALVYLGISFFDSSILEMEGKMGYRFTPFGIEKADHDVSSENAIFISDMMHIIQRSISDGTLRELIEKAVISSKAAEMVRIADYSYYQDFESVFPVRTPYIKANTIEDLYRPDLIRYRNYISESYVKPDADIALILPCSAKKPYSRSKSHQKVIGALGNLRRFIHEVIVTSPIGIVPRDLEETYPARFYDIPVIGLWYEDEKIMMKRMMSSYMGRNRYRKVIAFIPEDLDFITEAIPYPHEVIEFKSSNLQRLREVIQREIAGGKAVNQKVAKYNSILRYQFGEWILPLVSGYTIRRNYNQDMIVKDGKILFVYNENLGKFTINKASADMFIKNGKFLVEIDDFKPTSNVYAMGVVDATEDIRQEDEVVLVHSGEVRGVGIAKMPARAMIELKKGIAVKVREGHHHHHH”: “soluble”; “MPVVKVRENEPFDVALRRFKRSCEKAGILSEVRRREHYEKPTTVRKRAKAAAQKRHAKKLSRENARRVRLYLEHHHHHH”: “not soluble”. Next, “MTQPDRGKDRAGRRTKRFLTPSEKYEIWLQLVRQEVTIAEAAEQQQVDRSTIMRIRTVAKEGALAALAASKPGVAAAQRDYEMEAAKAEIARLSEAVKQMAVKLTLVEGKGGWA”: “not soluble”; “MGVLPKINIVARQFRKCSMAATSTSTSSSDNSVASTAFVQEHVRQMQNDIMVQLIPQDESGAVENLADLNVTSNLGRMTHYYFQQGGKMLRPTVSLLMGNACNSAANRSISEEYLAMLSTERSGIAAHLSVCQNQYKIGMIAEMIHTASLVHDDVIDEANTRRGSASVNAVWGNKMSVLVGDFILARATQILCSIGKPNIISVMASIIEDLVLGEFMQMSTTPTDATPVDRMKAYIEKTHRKTASLFASSCRSAAILADGSDLKLHEIAFEYGRNLGIAFQLADDLLDFIATADEMGKPVAADLKLGLATAPVLYACEQYPELNTMLLRKFKHDGDAEKAREIVVNSDGMDKTRRLIDSYSQKAVEMASSLPNRNESTEHLIKLAMSQSDRKF”: “not soluble”. With “QSEPELKLESVVIVSRHGVRAPTKATQLMQDVTPDAWPTWPVKLGWLTPRGGELIAYLGHYQRQRLVADGLLAKKGCPQSGQVAIIADVDERTRKTGEAFAAGLAPDCAITVHTQTDTSSPDPLFNPLKTGVCQLDNANVTDAILSRAGGSIADFTGHRQTAFRELERVLNFPQSNLCLKREKQDESCSLTQALPSELKVSADNVSLTGAVSLASMLTEIFLLQQAQGMPEPGWGRITDSHQWNTLLSLHNAQFYLLQRTPEVARSRATPLLDLIKTALTPHPPQKQAYGVTLPTSVLFIAGHDTNLANLGGALELNWTLPGQPDNTPPGGELVFERWRRLSDNSQWIQVSLVFQTLQQMRDKTPLSLNTPPGEVKLTLAGCEERNAQGMCSLAGFTQIVNEARIPACSL”, the “soluble on expression in E. coli” value is given as “soluble”. As for “MSLKITSIETIPIKVPIKPEFAIRSGRGGSHVVSPFLLVKVHTDAGITGLGEVSCTPRWSGEDQVSAAHFIKTYLAPLLEGEDPRQIESLTAKFRLGVAGNFFTKSGIEMALWDIAGKAAGKPVYELLGGTVREFIPTKWSVSGQEPDKAADIARWAVAQGFKAMKVKVGIEPDKDVARVAAVRAAIGSQIKLGVDANGGWSREVAASTIERLYASSIYFAEQPIPPEDLLYLPELRKQLKVPIIADESIYSLQDAMTLAHLQAADVFSIYVGKAGGIGPARKIAQFAESVGLKCTVGSNLELGIGSAAMIHLAIATHAIDAESYPCDIIGPMFYEDDMLVEPLPIVAGKAQPNSKPGLGVELNEKTVEKYRVCEGHHHHHH”, the entry is “soluble”. Next, “KYDNKEFSSAVGHYGVGNGPYFMIPGYGPYTLREVTDTVDGMYLPLSYLNIWAGLGKWALEGLEKRALLVPQEAQLDSSPDPYVLTRDVYIQRQNFKAEIDTVEEVNPEEEALLDEYLDEF”: “not soluble”; “SNAMSDKFHILLLNGPNLNLLGTREPEKYGYTTLAEIVSQLEIQAQGMDVALSHLQSNAEHALIDSIHQARGNTDFILINPAAFTHTSVALRDALLGVQIPFIEIHLSNVHAREPFRHHSYLSDIAVGVICGLGADGYNFALQAAVNRLSKSN”: “soluble”.
